Assay results from PMC5570900, “Exploiting a novel conformational switch to control innate immunity mediated by complement protein C3a” (Nature Communications, 2017).

Experiments:
C5aR = target: T1, C5aR (Homo sapiens, UniProt P21730); test: [125I]-hC5a competition binding on HMDMs; conditions: [125I]-hC5a 25 pM
T1 construct: endogenous in cells; host or cells: primary human monocyte-derived macrophages (HMDMs)
T1 sequence (P21730 1-350): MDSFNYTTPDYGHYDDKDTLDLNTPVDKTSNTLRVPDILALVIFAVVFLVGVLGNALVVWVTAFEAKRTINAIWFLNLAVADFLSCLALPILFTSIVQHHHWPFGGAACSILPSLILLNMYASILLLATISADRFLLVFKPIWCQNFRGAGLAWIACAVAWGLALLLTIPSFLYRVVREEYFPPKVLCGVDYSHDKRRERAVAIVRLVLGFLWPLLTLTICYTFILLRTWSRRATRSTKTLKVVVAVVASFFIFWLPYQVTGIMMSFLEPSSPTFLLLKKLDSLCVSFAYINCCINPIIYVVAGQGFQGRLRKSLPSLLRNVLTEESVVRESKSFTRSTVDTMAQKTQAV
Method: Receptor binding was performed by ligand competition with labelled 80 pM [^125I]-C3a or 25 pM [^125I]-C5a (2200 Ci/mmol; Perkin Elmer, Torrance, CA, USA) on HMDMs (1.2 × 10^6 cells/ml). HMDMs were treated with [^125I]-C3a or [^125I]-C5a ± various concentrations of unlabelled C3a/C5a or experimental ligands were diluted with assay buffer (50 mM Tris, 3 mM MgCl2, 0.1 mM CaCl2, 0.5% (w/v) BSA, pH 7.4) for 60 min at room temperature. Unbound [^125I]-C3a or [^125I]-C5a was removed by filtration through glass microfibre filter GF/B (Whatman Iner. Ltd, England) and washed three times with cold buffer (50 mM Tris-HCl pH 7.4). Bound [^125I]-C3a or [^125I]-C5a were assessed by scintillation counting on Microbeta counter. Specific binding was defined as the difference between total binding and nonspecific binding as determined in the presence of 1 μM unlabelled C3a or C5a[4].

[1] = test system: wild-type human HEK293 cells (C3aR−/−); test: Intracellular Ca2+ release in wild-type HEK293 cells; format: cell-based
Rat plasma stability = format: in vitro ADME; conditions: 37 °C
Method: (§1) For plasma stability studies, C3a and experimental compounds (10 μL, 1 mM in DMSO) were added to neat rat plasma (190 μL) and heated to 37 °C in a circulating water bath. Aliquots (20 µL) were collected at time points (0, 2, 5 and 10 min for C3a; 0, 5, 15, 30, 60, 120 and 240 min for other test compounds) and added directly to MeCN/H2O (80 µL, 9:1). The samples were centrifuged at 13,000 g for 3 min before supernatants were isolated and analyzed for test compound degradation via LC-MS. For liver microsomal stability studies, commercially available rat liver microsomes from Life Technologies, GIBCO were used. In brief, microsomes stored at −80 °C were slowly defrosted on ice. Test compounds (183 μL, 1 μM in 100 mM phosphate buffer pH 7.4 containing 0.1 % DMSO) were added to microsomes (5 μL) and NADPH (2 µL, 20 mM). Test solutions were heated in a circulating water bath at 37 °C for 5 min before additional cofactor NADPH (10 μL, 20 mM) was added. Aliquots (20 μL) were taken at time points (0, 5, 15, 30 and 60 min from the second addition of NADPH). Aliquots were added to MeCN/H2O (80 μL, 9:1) and centrifuged at 13,000 g for 3 min. Supernatants were analyzed for test compound degradation by LC-MSMS. Concentrations were plotted as a function of time on a semi-logarithmic graph. Rat plasma and microsomal activity was confirmed by rapid degradation of SLIGRL-NH2 (t1/2 < 5 min) in a parallel experiment.

C3aR [2] = target: T2, C3aR (Homo sapiens, UniProt Q16581); test: Histamine secretion in human LAD2 mast cells (agonist mode); format: cell-based; design: Concentration-dependent histamine secretion in human LAD2 mast cells; endogenous in cells; host or cells: LAD2 human mast cells; conditions: compound alone, 30 min, n ≥ 3, ± SEM
T2 sequence (Q16581 1-482): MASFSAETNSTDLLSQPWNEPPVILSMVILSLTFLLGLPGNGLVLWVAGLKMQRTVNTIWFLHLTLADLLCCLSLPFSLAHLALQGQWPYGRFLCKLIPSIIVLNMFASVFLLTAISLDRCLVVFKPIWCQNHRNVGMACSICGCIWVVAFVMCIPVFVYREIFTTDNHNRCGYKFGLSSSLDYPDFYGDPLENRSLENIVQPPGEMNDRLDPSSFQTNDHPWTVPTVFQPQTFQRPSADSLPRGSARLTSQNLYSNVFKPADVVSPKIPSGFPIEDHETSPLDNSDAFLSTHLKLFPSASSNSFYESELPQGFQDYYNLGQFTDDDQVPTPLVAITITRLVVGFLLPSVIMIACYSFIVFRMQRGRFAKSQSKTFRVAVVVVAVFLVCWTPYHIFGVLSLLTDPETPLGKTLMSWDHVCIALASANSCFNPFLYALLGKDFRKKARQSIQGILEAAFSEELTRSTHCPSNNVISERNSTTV
Method: LAD2 human mast cells (kindly provided by Dr Dean Metcalfe, National Institute of Allergy and Infectious Diseases, National Institute of Health) were cultured in StemPro®-34 Serum Free Media (Invitrogen, Australia) supplemented with StemPro®-34 nutrient, 100 U/mL penicillin, 100 μg/mL streptomycin, 2 mM GlutaMAX, and 100 ng/mL human stem cell factor (SCF). Cells were hemi-depleted weekly and were not allowed to grow beyond a density of 0.5 × 10^6/mL. This cell line was authenticated by expression of tryptase and histamine granules. For the histamine assay, 1 × 10^4 cells per well were seeded in StemPro®-34 SFM in 96-well plates for 30 min before any treatments. For agonist studies, the cells were treated with compounds prepared in media for 30 min. For antagonist studies, the cells were pre-treated with compounds prepared in SFM for 30 min before addition of C3aR agonists for another 30 min. Cells were centrifuged (500 g, 5 min, 4 °C) and cell-free supernatants were collected for measuring histamine. Histamine content was measured using the histamine EIA kit according to the manufacturer’s instructions (Abnova, Taiwan). The readings were recorded on a FLUOstar Optima (BMG LabTechnologies, Offenburg, Germany).

C3aR [3] = target: T2, C3aR; test: Intracellular Ca2+ release in human monocyte-derived macrophages (agonist mode); format: cell-based; design: Concentration-dependent Ca^2+ release in human monocyte-derived macrophages (HMDMs); endogenous in cells; host or cells: primary human monocyte-derived macrophages (HMDMs); conditions: HMDMs, n ≥ 3, ± SEM
Method: HMDMs were isolated using Ficoll-paque density centrifugation (GE Healthcare Bio-Science, Uppsala, Sweden) from buffy coat (of anonymous human donors) provided by the Australian Red Cross Blood Service, Brisbane. CD14^+ monocytes were positively selected using CD14 MicroBeads (Miltenyi Biotech, Auburn, USA)[40], [41]. CD14^+ monocytes were differentiated to HMDMs using 100 ng/mL of recombinant human macrophage colony-stimulating factor (PeptroTech, Rocky Hill, USA) for 7 days in Iscove’s modified Dulbecco’s media supplemented with 10% fetal bovine serum, penicillin (100 U/mL), streptomycin (100 µg/mL) and L-glutamine (2 mM). HMDMs were supplemented after 5 days with fresh medium containing 10 ng/ml macrophage colony-stimulating factor and collected by gentle scraping on day 7.
HMDMs were seeded to a 96-well clear-bottom black-wall assay plate at a density of 5 × 10^4 cells per well and allowed to adhere overnight. Prior to assay, cells were incubated with dye-loading buffer (Hank’s balance salt solution (HBSS) buffer, 4 μM Fluo-3 AM, 25 μl Pluronic acid F-127 and 1% fetal bovine serum) for 1 h at 37 °C. Cells were then washed once with assay buffer (HBSS supplemented with 2.5 mM probenecid and 20 mM HEPES, pH 7.4). Intracellular calcium release was monitored using a fluorescence imaging plate reader (excitation 495 nm, emission 520 nm). The percentage responses were plotted against logarithmic concentrations of each test compound[42].

C3aR [4] = target: T2, C3aR; test: Intracellular Ca2+ release in HEK293 cells transfected with C3aR; format: cell-based; design: Concentration-dependent Ca^2+ release in human monocyte-derived macrophages (HMDMs); endogenous in cells; host or cells: primary human monocyte-derived macrophages (HMDMs); conditions: HEK293 cells transfected with C3aR (C3aR+/+), compound alone
[5] = Rat liver microsomal stability; format: in vitro ADME; conditions: rat, liver microsomes, pH 7.4; parallel control experiment, 37 °C; read-out: t1/2 in rat liver microsomes
Method: as §1

Row | Substance | C5aR binding by competition with [125I]-hC5a (C5aR) | Intracellular Ca2+ release [1] | Stability in rat plasma (Rat plasma stability; neat rat plasma, over 4 h (C3a up to 10 min)) | EC50 (C3aR [2]) [nM] | EC50 (C3aR [3]) [nM] | Intracellular Ca2+ release (C3aR [4]) | half-life at 50 µM (Rat plasma stability; rat, plasma (neat), parallel control experiment, read-out: t1/2 in rat plasma) [min] | half-life at 0.915 µM [5] [min]
1 | hC3a: human complement protein C3a, 77 residue ~9 kDa helix bundle inflammatory protein | no binding | did not induce Ca^2+ release | degraded within minutes | 3 ± 1.5 | 8 ± 2 | did induce Ca^2+ release | – | –
2 | H-SLIGRL-NH2 [SLIGRL-NH2, reference compound] | – | – | – | – | – | – | < 5 | < 5
